Source: patent US20110263454A1, “Methods of Identifying Functional Characteristics of Promoters, Transcription Modifying Proteins and Transcription Modulating Agents” (Salk Institute for Biological Studies, priority 2008, published 2011)

B1: NR4a3: NR4a3 (NR4A3; NOR1), nuclear hormone receptor cDNA driver (protein, UniProt Q92570 1-626, looked up)
Nuclear receptor subfamily 4 …: MPCVQAQYSPSPPGSSYAAQTYSSEYTTEIMNPDYTKLTMDLGSTEITATATTSLPSISTFVEGYSSNYELKPSCVYQMQRPLIKVEEGRAPSYHHHHHHHHHHHHHHQQQHQQPSIPPASSPEDEVLPSTSMYFKQSPPSTPTTPAFPPQAGALWDEALPSAPGCIAPGPLLDPPMKAVPTVAGARFPLFHFKPSPPHPPAPSPAGGHHLGYDPTAAAALSLPLGAAAAAGSQAAALESHPYGLPLAKRAAPLAFPPLGLTPSPTASSLLGESPSLPSPPSRSSSSGEGTCAVCGDNAACQHYGVRTCEGCKGFFKRTVQKNAKYVCLANKNCPVDKRRRNRCQYCRFQKCLSVGMVKEVVRTDSLKGRRGRLPSKPKSPLQQEPSQPSPPSPPICMMNALVRALTDSTPRDLDYSRYCPTDQAAAGTDAEHVQQFYNLLTASIDVSRSWAEKIPGFTDLPKEDQTLLIESAFLELFVLRLSIRSNTAEDKFVFCNGLVLHRLQCLRGFGEWLDSIKDFSLNLQSLNLDIQALACLSALSMITERHGLKEPKRVEELCNKITSSLKDHQSKGQALEPTESKVLGALVELRKICTLGLQRIFYLKLEDLVSPPSIIDKLFLDTLPF
B2: DAX-1: DAX1 (NR0B1), cDNA driver (protein, UniProt P51843 1-470, looked up)
Nuclear receptor subfamily 0 …: MAGENHQWQGSILYNMLMSAKQTRAAPEAPETRLVDQCWGCSCGDEPGVGREGLLGGRNVALLYRCCFCGKDHPRQGSILYSMLTSAKQTYAAPKAPEATLGPCWGCSCGSDPGVGRAGLPGGRPVALLYRCCFCGEDHPRQGSILYSLLTSSKQTHVAPAAPEARPGGAWWDRSYFAQRPGGKEALPGGRATALLYRCCFCGEDHPQQGSTLYCVPTSTNQAQAAPEERPRAPWWDTSSGALRPVALKSPQVVCEAASAGLLKTLRFVKYLPCFQVLPLDQQLVLVRNCWASLLMLELAQDRLQFETVEVSEPSMLQKILTTRRRETGGNEPLPVPTLQHHLAPPAEARKVPSASQVQAIKCFLSKCWSLNISTKEYAYLKGTVLFNPDVPGLQCVKYIQGLQWGTQQILSEHTRMTHQGPHDRFIELNSTLFLLRFINANVIAELFFRPIIGTVSMDDMMLEMLCTKI
B3: SHP: Small Heterodimer Partner (NR0B2), cDNA driver (protein, UniProt Q15466 1-257, looked up)
Nuclear receptor subfamily 0 …: MSTSQPGACPCQGAASRPAILYALLSSSLKAVPRPRSRCLCRQHRPVQLCAPHRTCREALDVLAKTVAFLRNLPSFWQLPPQDQRRLLQGCWGPLFLLGLAQDAVTFEVAEAPVPSILKKILLEEPSSSGGSGQLPDRPQPSLAAVQWLQCCLESFWSLELSPKEYACLKGTILFNPDVPGLQAASHIGHLQQEAHWVLCEVLEPWCPAAQGRLTRVLLTASTLKSIPTSLLGDLFFRPIIGDVDIAGLLGDMLLLR
B4: NR4a2: NR4a2 (NR4A2; NURR1), nuclear hormone receptor cDNA driver (protein, UniProt P43354 1-598, looked up)
Nuclear receptor subfamily 4 …: MPCVQAQYGSSPQGASPASQSYSYHSSGEYSSDFLTPEFVKFSMDLTNTEITATTSLPSFSTFMDNYSTGYDVKPPCLYQMPLSGQQSSIKVEDIQMHNYQQHSHLPPQSEEMMPHSGSVYYKPSSPPTPTTPGFQVQHSPMWDDPGSLHNFHQNYVATTHMIEQRKTPVSRLSLFSFKQSPPGTPVSSCQMRFDGPLHVPMNPEPAGSHHVVDGQTFAVPNPIRKPASMGFPGLQIGHASQLLDTQVPSPPSRGSPSNEGLCAVCGDNAACQHYGVRTCEGCKGFFKRTVQKNAKYVCLANKNCPVDKRRRNRCQYCRFQKCLAVGMVKEVVRTDSLKGRRGRLPSKPKSPQEPSPPSPPVSLISALVRAHVDSNPAMTSLDYSRFQANPDYQMSGDDTQHIQQFYDLLTGSMEIIRGWAEKIPGFADLPKADQDLLFESAFLELFVLRLAYRSNPVEGKLIFCNGVVLHRLQCVRGFGEWIDSIVEFSSNLQNMNIDISAFSCIAALAMVTERHGLKEPKRVEELQNKIVNCLKDHVTFNNGGLNRPNYLSKLLGKLPELRTLCTQGLQRIFYLKLEDLVPPPAIIDKLFLDTLPF
B5: GCNF: Germ Cell Nuclear Factor (NR6A1, GCNF1), cDNA driver (protein, UniProt Q15406 1-480, looked up)
Nuclear receptor subfamily 6 …: MERDEPPPSGGGGGGGSAGFLEPPAALPPPPRNGFCQDELAELDPGTISVSDDRAEQRTCLICGDRATGLHYGIISCEGCKGFFKRSICNKRVYRCSRDKNCVMSRKQRNRCQYCRLLKCLQMGMNRKAIREDGMPGGRNKSIGPVQISEEEIERIMSGQEFEEEANHWSNHGDSDHSSPGNRASESNQPSPGSTLSSSRSVELNGFMAFREQYMGMSVPPHYQYIPHLFSYSGHSPLLPQQARSLDPQSYSLIHQLLSAEDLEPLGTPMLIEDGYAVTQAELFALLCRLADELLFRQIAWIKKLPFFCELSIKDYTCLLSSTWQELILLSSLTVYSKQIFGELADVTAKYSPSDEELHRFSDEGMEVIERLIYLYHKFHQLKVSNEEYACMKAINFLNQDIRGLTSASQLEQLNKRYWYICQDFTEYKYTHQPNRFPDLMMCLPEIRYIAGKMVNVPLEQLPLLFKVVLHSCKTSVGKE
B6: PR: Progesterone Receptor (NR3C3), cDNA driver (protein, UniProt P06401 1-933, looked up)
Progesterone receptor: MTELKAKGPRAPHVAGGPPSPEVGSPLLCRPAAGPFPGSQTSDTLPEVSAIPISLDGLLFPRPCQGQDPSDEKTQDQQSLSDVEGAYSRAEATRGAGGSSSSPPEKDSGLLDSVLDTLLAPSGPGQSQPSPPACEVTSSWCLFGPELPEDPPAAPATQRVLSPLMSRSGCKVGDSSGTAAAHKVLPRGLSPARQLLLPASESPHWSGAPVKPSPQAAAVEVEEEDGSESEESAGPLLKGKPRALGGAAAGGGAAAVPPGAAAGGVALVPKEDSRFSAPRVALVEQDAPMAPGRSPLATTVMDFIHVPILPLNHALLAARTRQLLEDESYDGGAGAASAFAPPRSSPCASSTPVAVGDFPDCAYPPDAEPKDDAYPLYSDFQPPALKIKEEEEGAEASARSPRSYLVAGANPAAFPDFPLGPPPPLPPRATPSRPGEAAVTAAPASASVSSASSSGSTLECILYKAEGAPPQQGPFAPPPCKAPGASGCLLPRDGLPSTSASAAAAGAAPALYPALGLNGLPQLGYQAAVLKEGLPQVYPPYLNYLRPDSEASQSPQYSFESLPQKICLICGDEASGCHYGVLTCGSCKVFFKRAMEGQHNYLCAGRNDCIVDKIRRKNCPACRLRKCCQAGMVLGGRKFKKFNKVRVVRALDAVALPQPVGVPNESQALSQRFTFSPGQDIQLIPPLINLLMSIEPDVIYAGHDNTKPDTSSSLLTSLNQLGERQLLSVVKWSKSLPGFRNLHIDDQITLIQYSWMSLMVFGLGWRSYKHVSGQMLYFAPDLILNEQRMKESSFYSLCLTMWQIPQEFVKLQVSQEEFLCMKVLLLLNTIPLEGLRSQTQFEEMRSSYIRELIKAIGLRQKGVVSSSQRFYQLTKLLDNLHDLVKQLHLYCLNTFIQSRALSVEFPEMMSEVIAAQLPKILAGMVKPLLFHKK

Columns and labels:
hMyoD promoter = experiment: NHR-promoter luciferase screen, hMyoD promoter; format: cell-based, human; details: for Luc. act., normalized to lacZ / Normalized Luc. act., normalized to control: MyoD promoter reporter, co-transfected HR, without or with its ligand; for Normalized Luc. act., normalized to control: relative to control; for luciferase activity normalized to lacZ activity and to a control, hMyoD: hMyoD promoter-luciferase, CV-1 cells, NHR +/- ligand, control = 1.00
Method in brief: (§1)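 CV-1 cells were co-transfected with 50 ng NHR (homodimer or NHR/RXR heterodimer), 100 ng promoter-luciferase construct and 50 ng LacZ. Luciferase was normalized to LacZ and to a no-NHR/no-ligand control.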

FGF1D promoter = experiment: FGF family promoter luciferase reporter screen by NHRs, FGF1D; format: cell-based, human; details: FIG. 43, in words
From the text: Screening for FGF regulation by NHRs. The methods described herein provide a straightforward, high throughput, sensitive and quantitative strategy to identify therapeutic agonists and antagonists that can predictably modulate FGF and FGFR expression for therapeutic benefit. Promoter constructs were designed and screened for all 22 members of the FGF-family for novel regulation by the NHRs. Of particular interest is the strong and specific transcriptional regulation of FGF1A, one of the alternative splice variants of FGF1, by PPARγ (FIG. 43). The FGF 1 gene is regulated by at least three (A, B and D) different promoters. Alternative splicing of these promoters to the three exons of the FGF1 gene results in identical but differentially expressed FGF1 polypeptides (FIG. 44). FGF1A is highly expressed in heart, kidney and adipose, FGF1B is highly expressed in brain and FGF1D is highly expressed in liver.

MCP-1 promoter = experiment: NHR-promoter luciferase screen, MCP-1 promoter; format: cell-based; details: for Normalized Luc. act., normalized to control / Luc. act., normalized to lacZ: MCP-1 promoter reporter; for Normalized Luc. act., normalized to control: HR without or with its ligand, relative to control; for Luc. act., normalized to lacZ: hormone receptor (HR) without or with its ligand; for mMCP-1 promoter reporter activity: transcription factor +/- ligand, control = 1.00
Method in brief: as §1

mDio1 promoter = experiment: NHR-promoter luciferase screen, mDio1 promoter; format: cell-based, mouse; details: for Luc. act., normalized to lacZ / Normalized Luc. act., normalized to control: Dio1, HR component without or with its ligand; for mDio1 promoter reporter activity: transcription factor +/- ligand, control = 1.00
Method in brief: as §1

| Molecule | Luc. act., normalized to lacZ (hMyoD promoter) | Normalized Luc. act., normalized to control (hMyoD promoter) | luciferase activity normalized to lacZ activity and to a control, hMyoD (hMyoD promoter) | activation of FGF1D promoter, luciferase reporter assay (FGF1D promoter) | Normalized Luc. act., normalized to control (MCP-1 promoter) | Luc. act., normalized to lacZ (MCP-1 promoter) | mMCP-1 promoter reporter activity (MCP-1 promoter) | Luc. act., normalized to lacZ (mDio1 promoter) | Normalized Luc. act., normalized to control (mDio1 promoter) | mDio1 promoter reporter activity (mDio1 promoter) |
| --- | --- | --- | --- | --- | --- | --- | --- | --- | --- | --- |
| LXRa: Liver X Receptor α (NR1H3), cDNA driver | 60.1 | 0.9 | 0.95 | moderate activation | 0.9 | 97.3 | 0.91 | 4.7 | 1.1 | 1.06 |
| B1 | 56.1 | 0.9 | 0.89 | – | 0.5 | 51.9 | 0.48 | 6.6 | 1.5 | 1.48 |
| B2 | 61.3 | 1.0 | 0.97 | – | 1.0 | 108.9 | 1.02 | 8.9 | 2.0 | 2.00 |
| B3 | 54.0 | 0.9 | 0.85 | – | 1.2 | 130.4 | 1.22 | 4.8 | 1.1 | 1.07 |
| B4 | 51.9 | 0.8 | 0.82 | – | 0.6 | 58.9 | 0.55 | 6.3 | 1.4 | 1.41 |
| B5 | 50.5 | 0.8 | 0.80 | – | 0.0 | – | 0.00 | 5.1 | 1.1 | 1.13 |
| B6 | 70.4 | 1.1 | 1.11 | – | 1.2 | 128.0 | 1.20 | 7.8 | 1.8 | 1.75 |
